Assay results from US20220387487A1, “COMPOSITIONS AND METHODS FOR TREATMENT OF CANCER” (Aleta Biotherapeutics Inc., priority 2019, published 2022).
Substitutions are numbered along the chain they refer to. Numbers in names are those of the source.

T1: CLL-1 (CLEC12A) on CLL-1 positive cell lines (U937, OCI-AML-5) (human, UniProt Q5QGZ9 1-265)
T1 sequence: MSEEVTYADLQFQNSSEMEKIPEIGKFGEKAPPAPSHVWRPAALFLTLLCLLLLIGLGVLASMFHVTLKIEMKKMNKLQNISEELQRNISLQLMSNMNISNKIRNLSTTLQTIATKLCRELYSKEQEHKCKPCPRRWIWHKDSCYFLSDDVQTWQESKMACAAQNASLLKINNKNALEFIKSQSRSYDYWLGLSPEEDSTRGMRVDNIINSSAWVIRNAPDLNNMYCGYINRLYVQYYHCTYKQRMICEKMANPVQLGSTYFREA

T2: CLEC12A (Homo sapiens, UniProt Q5QGZ9, K244Q)
T2 sequence (Q5QGZ9 65-265 K244Q): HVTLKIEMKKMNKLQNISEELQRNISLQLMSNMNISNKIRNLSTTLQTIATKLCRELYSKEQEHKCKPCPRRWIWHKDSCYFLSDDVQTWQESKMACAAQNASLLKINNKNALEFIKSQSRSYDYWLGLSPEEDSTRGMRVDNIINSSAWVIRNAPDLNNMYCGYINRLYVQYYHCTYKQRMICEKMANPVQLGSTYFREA

B1: CD19 variant-anti-CLL-1 VHH(1B12) (construct #321) (other)
chain: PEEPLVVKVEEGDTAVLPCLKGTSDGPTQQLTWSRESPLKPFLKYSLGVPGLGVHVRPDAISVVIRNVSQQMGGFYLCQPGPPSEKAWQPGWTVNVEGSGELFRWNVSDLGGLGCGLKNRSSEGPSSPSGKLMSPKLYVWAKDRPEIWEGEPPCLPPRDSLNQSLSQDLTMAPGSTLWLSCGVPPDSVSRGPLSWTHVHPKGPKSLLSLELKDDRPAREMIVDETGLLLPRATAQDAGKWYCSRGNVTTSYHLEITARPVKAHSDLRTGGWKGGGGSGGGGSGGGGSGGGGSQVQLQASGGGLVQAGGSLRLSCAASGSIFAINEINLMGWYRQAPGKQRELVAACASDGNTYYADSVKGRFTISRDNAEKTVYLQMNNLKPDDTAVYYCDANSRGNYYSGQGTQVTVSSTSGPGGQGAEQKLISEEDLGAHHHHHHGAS
notes: Fusion of a CD19 variant extracellular domain, linker, anti-CLL-1 VHH 1B12 and myc-His tag
B2: W62T/F64M/F66S: CD19 variant (protein)
chain: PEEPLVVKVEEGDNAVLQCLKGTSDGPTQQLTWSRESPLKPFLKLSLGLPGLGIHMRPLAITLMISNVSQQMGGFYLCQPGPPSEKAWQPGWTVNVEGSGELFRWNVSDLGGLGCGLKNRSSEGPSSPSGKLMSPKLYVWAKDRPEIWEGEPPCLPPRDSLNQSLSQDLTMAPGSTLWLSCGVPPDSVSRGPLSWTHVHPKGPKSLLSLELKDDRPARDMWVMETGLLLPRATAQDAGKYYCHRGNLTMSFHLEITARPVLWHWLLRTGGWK
B3: W62S/F64F/F66N: CD19 variant (protein)
chain: B2 chain with T62S, M64F, S66N
B4: W62D/F64A/F66S: CD19 variant (protein)
chain: B2 chain with T62D, M64A
B5: W62S/F64V/F66R: CD19 variant (protein)
chain: B2 chain with T62S, M64V, S66R
B6: E224G/G226G/L228I: CD19 variant (protein)
chain: B2 chain with T62W, M64F, S66F, E224G, L228I
B7: E224G/G226R/L228I: CD19 variant (protein)
chain: B2 chain with T62W, M64F, S66F, E224G, G226R, L228I
B8: W62D/F64V/F66S: CD19 variant (protein)
chain: B2 chain with T62D, M64V
B9: W62W/F64T/F66A: CD19 variant (protein)
chain: B2 chain with T62W, M64T, S66A
B10: W62G/F64V/F66K: CD19 variant (protein)
chain: B2 chain with T62G, M64V, S66K
B11: E224G/G226A/L228V: CD19 variant (protein)
chain: B2 chain with T62W, M64F, S66F, E224G, G226A, L228V
B12: W62G/F64V/F66R: CD19 variant (protein)
chain: B2 chain with T62G, M64V, S66R
B13: W62S/F64R/F66R: CD19 variant (protein)
chain: B2 chain with T62S, M64R, S66R
B14: E224G/G226S/L228V: CD19 variant (protein)
chain: B2 chain with T62W, M64F, S66F, E224G, G226S, L228V
B15: L59N/I61I/L63I: CD19 variant (protein)
chain: B2 chain with L59N, T62W, L63I, M64F, S66F
B16: W62S/F64V/F66S: CD19 variant (protein)
chain: B2 chain with T62S, M64V
B17: W62H/F64V/F66S: CD19 variant (protein)
chain: B2 chain with T62H, M64V
B18: W62N/F64L/F66P: CD19 variant (protein)
chain: B2 chain with T62N, M64L, S66P
B19: #410: fusion protein containing the CD19 ECD and anti-CD33 scFv; SEQ ID NO:325 (protein)
chain: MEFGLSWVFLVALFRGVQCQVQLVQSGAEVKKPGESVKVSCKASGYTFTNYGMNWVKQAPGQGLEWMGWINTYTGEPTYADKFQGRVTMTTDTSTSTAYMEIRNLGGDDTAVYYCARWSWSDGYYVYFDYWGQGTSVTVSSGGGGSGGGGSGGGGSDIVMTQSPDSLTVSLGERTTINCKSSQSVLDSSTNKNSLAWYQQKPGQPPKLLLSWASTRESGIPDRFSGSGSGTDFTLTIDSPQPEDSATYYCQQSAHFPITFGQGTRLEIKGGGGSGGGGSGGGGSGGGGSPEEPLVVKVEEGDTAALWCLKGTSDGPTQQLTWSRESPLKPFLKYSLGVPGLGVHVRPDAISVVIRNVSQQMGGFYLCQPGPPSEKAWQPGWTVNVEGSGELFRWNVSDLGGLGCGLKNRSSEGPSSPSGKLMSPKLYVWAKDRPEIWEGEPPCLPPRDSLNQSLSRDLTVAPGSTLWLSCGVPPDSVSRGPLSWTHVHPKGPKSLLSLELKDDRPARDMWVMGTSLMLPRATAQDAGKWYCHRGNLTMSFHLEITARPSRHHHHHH
B20: #321: purified fusion protein of CD19 variant and anti-CLL-1 VHH; SEQ ID NO:303 (protein)
chain: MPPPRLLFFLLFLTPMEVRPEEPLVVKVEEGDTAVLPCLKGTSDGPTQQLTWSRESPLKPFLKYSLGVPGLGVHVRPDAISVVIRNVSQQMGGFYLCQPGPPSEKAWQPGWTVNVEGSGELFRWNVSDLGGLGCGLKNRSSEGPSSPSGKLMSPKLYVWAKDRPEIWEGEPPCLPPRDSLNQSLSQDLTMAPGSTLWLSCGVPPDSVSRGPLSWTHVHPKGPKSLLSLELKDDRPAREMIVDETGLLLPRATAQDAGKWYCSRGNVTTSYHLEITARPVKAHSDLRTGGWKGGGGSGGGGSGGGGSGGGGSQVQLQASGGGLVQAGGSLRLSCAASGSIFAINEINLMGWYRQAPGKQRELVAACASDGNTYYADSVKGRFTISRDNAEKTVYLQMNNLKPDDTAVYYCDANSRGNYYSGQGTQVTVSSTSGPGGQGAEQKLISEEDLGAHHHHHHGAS

These molecules were tested against T1, CLL-1 (CLEC12A) on CLL-1 positive cell … (assay: cell-based or functional assay). Details: not given.

Molecule	CLEC12A-cell cytotoxicity (IC50 n = 2-3)
B1	0.027 nM

Each molecule was assayed on FMC63 (assay: CD19 variant binding to anti-CD19 antibody FMC63 (score)). Details: Table 1B, CD19 triple mutants.

Molecule	FMC63 Binding Score
B2	15.7 ± 5.6
B3	15.6 ± 5.6
B4	15.5 ± 5.6
B5	11.8 ± 1.7
B6	11.2 ± 1.2
B7	12. ± 2.
B8	13.3 ± 3.2
B9	13.9 ± 4.
B10	12.3 ± 2.3
B11	10.8 ± .8
B12	14.1 ± 1.9
B13	13.7 ± 1.9
B14	11.2 ± 1.1
B15	15.6 ± 5.6
B16	15.4 ± 2.8
B17	14. ± 4.
B18	15.6 ± 5.6

These molecules were tested against CD33 (Homo sapiens, UniProt P20138) (assay: ELISA of fusion proteins, FMC63 coat, biotinylated CD33 detection). Details: ELISA, FMC63 coat, biotinylated CD33.
Type: binding
Experimental: ELISAs for binding to CD19, CLEC12A and CD33 were run using purified fusion proteins #330, #410 and #440. A 96 well plate was coated with 1.0 μg/ml FMC63 (Novus) in 0.1 M carbonate, pH 9.5 overnight at 4° C. The plate was blocked with 0.3% non-fat milk in TBS for 1 hour at room temperature. After washing in TBST (0.1 M Tris, 0.5 M NaCl, 0.05% Tween20) 3 times, the fusion protein supernatant was titrated using 3-fold dilutions in 1% BSA in TBS and incubated 1 hour at room temperature. For detection by anti-His, after washing 3 times in TBST, HRP-anti-His (BioLegend) was added at 1:2000. The plate was incubated at room temperature in the dark for 1 hour. For detection of binding to CLEC12A, biotinylated CLEC12A was added at 0.5 μg/ml and incubated for 1 hour. This was followed by adding HRP-SA (Pierce) at 1:2000 and incubated at room temperature in the dark for 1 hour. For testing binding to CD33, biotinylated CD33 was added at 0.5 μg/ml and incubated for 1 hour. This was followed by adding HRP-SA (Pierce) at 1:2000 and incubated at room temperature in the dark for 1 hour. Then, 1-Step Ultra TMB-ELISA (Thermo Fisher) solution, was added and the plate read at […]. Curves were fit using a four-parameter logistic (4 PL) regression to calculate the EC50.

Molecule	CD33 binding EC50
B19	3.0 ng/mL

Each molecule was assayed against CLEC12A (assay: ELISA binding of fusion proteins (FMC63 coat, HRP-anti-His detection)). Details: purified fusion protein, FMC63 coat; read-out: CLEC12A binding (ELISA EC50).
Set-up: species or system human
Experimental: The binding of the biparatopic fusion proteins to CLEC12A was also examined by ELISA. […] The plate was left to incubate overnight at 4° C. The coated plate was blocked with TBS/0.3% nonfat dry milk (NFD) for 60 minutes at RT.

Molecule	EC50
B20	0.09 nM

What follows are molecules tested on Molm14 cells (assay: CAR-CD19 T cell cytotoxicity bridged by purified fusion protein, luciferase Molm14 cells). Details: FIG. 21A.
Type: cell-based
Experimental: To test cytoxicity, luciferase labeled Molm14 or U937 cells were targeted for cytotoxic killing using a CAR19 T cell preparation and the purified proteins #330, #410 and #440 added in a dose titration. 1×10^4 target cells were added to each well (96 clear round bottom plate) in RPMI medium. The protein titration was started at 180 ng/ml with 3-fold serial titration into corresponding wells (25 μl per well). CAR-CD19 T cells were added at various E:T ratios to the target cells. After 48 hours the plate was centrifuged (450 RCF for 5 minutes) and the cells were washed 1× with PBS then centrifuged a second time. 20 μl lysis buffer was added into each well. The cell lysate was transferred to a 96 opaque white plate. The plates were read in a luminometer with an injector (Glomax Multi Detection System, Promega). The percent killing was calculated based upon the average loss of luminescence of the experimental vs the control (target cell only or target cell plus fusion protein only).

Molecule	cytotoxicity on Molm14 cells
B19	about equipotent

What follows are molecules tested against T2, CLEC12A (assay: ELISA of fusion proteins, FMC63 coat, biotinylated CLEC12A detection). Details: not given.
Type: binding

Molecule	CLEC12A binding EC50 pM	CLEC12A binding EC50 ng/ml
B19	∞	∞

What follows are molecules tested against T1, CLL-1 (CLEC12A) on CLL-1 positive cell … (assay: flow cytometry on CLL-1 positive U937 cells, FMC63-PE detection). Details: not given.

Molecule	EC50
B1	3 nM
